Read-outs that look alike come from different tables or passages of the source. One block for each molecule: values may come before it.
What was measured:
[1] = biological target: CD33 antigen (human) (UniProt P20138); test: competition with 125I-labelled native antibody on HEL 92.1.7 cells; IC50 (reference) / IC50 (sample)
[2] = biological target: CD33 antigen (human) (UniProt P20138)
[3] = biological target: CD33 antigen (human) (UniProt P20138); remark: listed apart in the source
[4] = biological target: CD33 antigen (human) (UniProt P20138); remark: listed apart in the source
[5] = biological target: CD33 antigen (human) (UniProt P20138); remark: listed apart in the source
[6] = biological target: CD33 antigen (human) (UniProt P20138); remark: listed apart in the source
[7] = biological target: CD33 antigen (human) (UniProt P20138); remark: listed apart in the source
[8] = biological target: CD33 antigen (human) (UniProt P20138); remark: listed apart in the source
[9] = biological target: polyepithelial mucin (PEM) antigen on cells (human) (UniProt P15941)
[10] = biological target: IL-2 receptor that is found on activated and functionally mature T cells, including abnormally activated leukemia cells (Homo sapiens (Human)) (UniProt P01589)
[11] = biological target: CD33 antigen (human) (UniProt P20138); test: competition with 125I-labelled native antibody on HEL 92.1.7 cells; IC50 (reference) / IC50 (sample); remark: listed apart in the source
[12] = biological target: CD33 antigen (human) (UniProt P20138); remark: listed apart in the source

Molecule: Conjugate of 3-(2-oxoethoxy)benzoic acid (6) condensed with Calicheamicin N-acetyl gamma dimethyl hydrazide and m-P67.6 (antibody)
Rel. Affinity [1]: 1.91 | In vitro IC50 (3H-thymidine incorporation) [2]: 0.32 ng/mL

Molecule: Conjugate of 4-(4-acetylphenoxy)butanoic acid (7) condensed with Calicheamicin N-acetyl gamma dimethyl hydrazide and m-P67.6 (antibody)
Rel. Affinity [1]: 0.96 | Ex vivo inhibition of colony formation [4]: 98 % inhibition | In vitro IC50 (3H-thymidine incorporation) [4]: 0.017 ng/mL

Molecule: Conjugate of 4-formylphenoxyacetic acid (1) condensed with Calicheamicin N-acetyl gamma dimethyl hydrazide and m-P67.6 (antibody)
Rel. Affinity [1]: 0.77 | Ex vivo inhibition of colony formation [5]: 90 % inhibition | In vitro IC50 (3H-thymidine incorporation) [5]: 0.068 ng/mL

Molecule: Conjugate of 4-acetylbenzenebutanoic acid (19) condensed with Calicheamicin N-acetyl gamma dimethyl hydrazide and m-P67.6 (antibody)
Rel. Affinity [1]: 0.42 | Ex vivo inhibition of colony formation [6]: 99 % inhibition | In vitro IC50 (3H-thymidine incorporation) [6]: 0.0082 ng/mL

Molecule: Conjugate of 4-(4-acetylphenoxy)butanoic acid (7) condensed with Calicheamicin N-acetyl gamma dimethyl hydrazide and h-CT-M-01 (antibody)
In vitro IC50 (3H-thymidine incorporation) [9]: 0.048 ng/mL

Next, values leading:

Rel. Affinity [1]: 1.11 | Ex vivo inhibition of colony formation [3]: 71 % inhibition | In vitro IC50 (3H-thymidine incorporation) [3]: 0.45 ng/mL
Molecule: Conjugate of 4-(2-oxoethoxy)benzenepropanoic acid (5) condensed with Calicheamicin N-acetyl gamma dimethyl hydrazide and m-P67.6 (antibody)

Rel. Affinity [1]: 0.73 | In vitro IC50 (3H-thymidine incorporation) [7]: 0.047 ng/mL
Molecule: Conjugate of 6-formyl-2-naphthoic acid (4) condensed with Calicheamicin N-acetyl gamma dimethyl hydrazide and m-P67.6 (antibody)

Ex vivo inhibition of colony formation [8]: 90 % inhibition | In vitro IC50 (3H-thymidine incorporation) [8]: 0.12 ng/mL | Rel. Affinity [1]: 0.76
Molecule: Conjugate of 4-formyl-3-methoxyphenoxyacetic acid (3) condensed with Calicheamicin N-acetyl gamma dimethyl hydrazide and m-P67.6 (antibody)

Ex vivo IC50 (inhibition of D14 CFU-GM colony growth) [10]: 1 ng/mL | In vitro IC50 (3H-thymidine incorporation) [10]: 0.004 ng/mL
Molecule: Conjugate of 4-(4-acetylphenoxy)butanoic acid (7) condensed with calicheamicin N-acetyl gamma dimethyl hydrazide and anti-Tac (antibody)

Rel. Affinity [11]: 0.81 | In vitro IC50 (3H-thymidine incorporation) [12]: 0.3 ng/mL
B1: Conjugate of 4-formyl-3-methoxyphenoxyacetic acid (3) condensed with Calicheamicin N-acetyl gamma dimethyl hydrazide and h-P67.6 (antibody, V domains shown)
VH: EVQLVQSGAEVKKPGSSVKVSCKASGYTITDSNIHWVRQAPGQSLEWIGYIYPYNGGTDYNQKFKNRATLTVDNPTNTAYMELSSLRSEDTDFYYCVNGNPWLAYWGQGTLVTVSS
VL: DIQLTQSPSTLSASVGDRVTITCRASESLDNYGIRFLTWFQQKPGKAPKLLMYAASNQGSGVPSRFSGSGSGTEFTLTISSLQPDDFATYYCQQTKEVPWSFGQGTKVEVKR
modifications: drug-linker amide on lysine side chains, sites not stated; drug-linker amide on lysine side chains, sites not stated

From patent publication US5773001 (American Cyanamid Company, dated 1998)
